Changes are numbered by the printed parent chain. Names may count otherwise. Blank lines part the entries; values can stand above or below the binder they belong to.
Tests used:
[1] = molecular target: T1, human PAR2 on cells (endogenous in A549 cells; overexpressed in 1321N1-hPAR2-c18 cells) (human, UniProt P55085 37-397); experiment: cell-based or functional assay
T1 sequence: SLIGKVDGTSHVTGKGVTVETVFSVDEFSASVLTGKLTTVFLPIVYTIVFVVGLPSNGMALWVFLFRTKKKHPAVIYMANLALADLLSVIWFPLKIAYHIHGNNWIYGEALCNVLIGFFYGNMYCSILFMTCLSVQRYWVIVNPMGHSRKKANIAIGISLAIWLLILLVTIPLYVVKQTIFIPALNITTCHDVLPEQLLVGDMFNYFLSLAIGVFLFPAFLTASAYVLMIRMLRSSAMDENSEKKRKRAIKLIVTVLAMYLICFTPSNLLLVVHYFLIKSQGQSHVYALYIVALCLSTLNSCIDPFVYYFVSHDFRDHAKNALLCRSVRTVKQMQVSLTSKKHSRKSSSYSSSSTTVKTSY

[2] = molecular target: T2, recombinant biotinylated human PAR2 extracellular domain (residues 1-75), N-terminal AviTag, C-terminal Flag … (human, UniProt P55085 26-75, biotin on the AviTag (enzymatic biotinylation)); experiment: HTRF competition with Dylight650-Par0067 IgG, IgG
T2 construct: also called Bio-human-PAR2 ECD; human PAR2 ECD; not shown: N-terminal AviTag (Avidity LLC); C-terminal Flag and poly Histidine tags
Experimental: (§1) Parent Par0067 IgG (used as a reference/control in all assays) was pre-diluted to give a 2000 nM stock in each of the two different pH assay buffers (in order to give a top final assay IgG concentration of 500 nM). All test, or other reference/control IgG were tested from a top final assay concentration of ¼ of the neat undiluted sample (i.e. no pre-dilution step was performed). Duplicate 11 point 1:3 serial dilutions then were prepared on 384 well polypropylene Greiner plates in each of the two assay buffers (pH 7.4 & 6.0). 5 μl per well was transferred from the relevant pH IgG dilution plate to the corresponding assay plate (pH 7.4 and pH 6.0). 5 ul of the appropriate pH assay buffer was added to the total and non-specific wells.
(§2) For multipoint dose response curves % Specific Binding values were plotted versus test purified antibody concentration (scFv or IgG). IC₅₀ values were determined via a sigmoidal dose response inhibition variable slope curve fit (4 parameter logistic equation) using Graphpad Prism Software.

[3] = molecular target: T2, recombinant biotinylated human PAR2 …; experiment: HTRF competition with Dylight650-Par0067 IgG, pH 7.4, IgG
Experimental: as §1, §2

[4] = molecular target: T2, recombinant biotinylated human PAR2 …; experiment: HTRF competition with Dylight650-Par0067 IgG, pH 6.0, IgG
Experimental: as §1, §2

[5] = molecular target: T3, recombinant biotinylated rat PAR2 extracellular residues 1-75, N-terminal AviTag, C-terminal Flag and poly … (rat, UniProt Q63645 26-75, not fully specified; biotin on the AviTag (enzymatic biotinylation)); experiment: Biacore SPR 25 C, pH 7.4
T3 construct: range 1-75; not shown: N-terminal AviTag (Avidity LLC); C-terminal Flag and poly Histidine tags
T3 chain (looked up): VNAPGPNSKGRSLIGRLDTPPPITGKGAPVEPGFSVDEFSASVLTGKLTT
Experimental: (§3) The experiments were carried out using recombinant human, rat and cynomolgus PAR2 with an N-terminal Avi tag and C-terminal Flag-His tags.
(§4) Streptavidin was covalently immobilised to a C1 chip surface using standard amine coupling techniques at a concentration of 4 μg/ml in 10 mM Sodium acetate pH 4.5. A final streptavidin surface of approximately 30-100 RUs was achieved. Recombinant biotinylated PAR2 species (produced in-house) were titrated onto the streptavidin chip surface at 4 μg/ml in HBS-EP+ buffer to enable Fab binding at saturation (Rₘₐₓ). This low level of analyte binding ensured minimal mass transport effects.
(§5) The anti-PAR2 Fabs were serially diluted (0.39 nM-25 nM) in HBS-EP+ buffer pH 7.4 or MES-BS-EP+ pH 6.0 buffer or in MES-BS-EP+ pH 5.6 buffer and flowed over the chip at 50 μl/min, with 3 minutes association and up to 30 minutes dissociation. Multiple buffer-only injections were made under the same conditions to allow for double reference subtraction of the final sensorgram sets, which were analysed using the BiaEval software (version 2.0.1). The chip surface was fully regenerated with pulses of 4 M MgCl₂.

[6] = molecular target: T2, recombinant biotinylated human PAR2 …; experiment: Biacore SPR 25 C, pH 7.4
Experimental: as §3, §4, §5

[7] = molecular target: T3, recombinant biotinylated rat PAR2 …; experiment: Biacore SPR 25 C, pH 6.0
Experimental: as §3, §4, §5

[8] = molecular target: T2, recombinant biotinylated human PAR2 …; experiment: Biacore SPR 25 C, pH 6.0
Experimental: as §3, §4, §5

[9] = molecular target: T3, recombinant biotinylated rat PAR2 …; experiment: Biacore SPR 25 C, pH 6.0
Experimental: as §3, §4, §5

[10] = molecular target: T2, recombinant biotinylated human PAR2 …; experiment: Biacore SPR 25 C, pH 6.0; remark: listed apart in the source
Experimental: as §3, §4, §5

[11] = molecular target: T3, recombinant biotinylated rat PAR2 …; experiment: Biacore SPR 25 C, pH 7.4
Experimental: as §3, §4, §5

[12] = molecular target: T2, recombinant biotinylated human PAR2 …; experiment: Biacore SPR 25 C, pH 7.4; remark: listed apart in the source
Experimental: as §3, §4, §5

[13] = molecular target: T2, recombinant biotinylated human PAR2 …; experiment: Biacore SPR 25 C, pH 6.0; pH 6.0; human PAR2
Experimental: as §3, §4, §5

T2 sequence (P55085 26-75): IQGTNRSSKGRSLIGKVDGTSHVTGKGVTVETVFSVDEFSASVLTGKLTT

IC50 (read off the curve); calcium response to trypsin in presence of PaB670129, human A549 cells [1]: ~0.1 nM
Fold IC50 pH 7.4 (Variant v Par0067) [2]: 67.2 fold
IC50 [3]: 56.1 nM
B1: PaB670129 IgG1TM (antibody, V domains shown)
VH: EVQLLESGGGLVQPGGSLRLSCAASGFTFSSYAMNWVRQAPGKGLEWVSTISYHGSHISYHDSVHHRFTISRDNSKNTLYLQMNSLRAEDTAVYYCARIHHDPMDVWGQGTLVTVSS
VL: SIELTQPPSVSVSPGQTASITCSGDNLGKKYVQWYQQKPGQSPVLVIYDDSNRPSGIPERFSGSNSGNTATLTISGTQAMDEADYYCQTWDGNPTTGETNVFGGGTKLTVL
notes: IgG1-TM (L234F, L235E, P331S), human lambda light chain; also called ZZ1RUE-F02

IC50 [4]: 1900 nM
Fold IC50 (pH 6.0 v pH 7.4) [2]: 39.6 fold
Fold IC50 pH 7.4 (Variant v Par0067) [2]: 57.4 fold
IC50 [3]: 47.9 nM
B2: PaB670161 IgG (antibody, V domains shown)
VH: B1 VH with H54S, H57L, H61A, H65K, H66G
VL: B1 VL with Q88H, N93H, P94H, V101H
notes: IgG1-TM (L234F, L235E, P331S), human lambda light chain

IC50 [4]: 477 nM
Fold IC50 (pH 6.0 v pH 7.4) [2]: 69.8 fold
Fold IC50 pH 7.4 (Variant v Par0067) [2]: 8.2 fold
IC50 [3]: 6.8 nM
B3: PaB670158 IgG (antibody, V domains shown)
VH: B1 VH with S56H, H61A, V64H, H100N, H101N
VL: B1 VL with N93H, P94H, T95H, V101H
notes: as for B2

IC50 [4]: 634 nM
Fold IC50 (pH 6.0 v pH 7.4) [2]: 37.5 fold
Fold IC50 pH 7.4 (Variant v Par0067) [2]: 20.2 fold
IC50 [3]: 16.9 nM
B4: PaB670160 IgG (antibody, V domains shown)
VH: B1 VH with H54S, H57L, H61A, H65K, H66G, H100N
VL: B1 VL with Q88H, N93H, P94H, V101H
notes: as for B2

Kd [5]: 0.586 nM
koff [5]: 0.00307 s⁻¹
kon [5]: 5.24e+06 M⁻¹ s⁻¹
Kd [6]: 0.124 nM
koff [6]: 0.000519 s⁻¹
kon [6]: 4.2e+06 M⁻¹ s⁻¹
Kd [7]: 4.48 nM
koff [7]: 0.0217 s⁻¹
kon [7]: 4.84e+06 M⁻¹ s⁻¹
Kd [8]: 2.49 nM
koff [8]: 0.00458 s⁻¹
kon [8]: 1.84e+06 M⁻¹ s⁻¹
Kd [9]: 5.12 nM
koff [9]: 0.0205 s⁻¹
kon [9]: 4e+06 M⁻¹ s⁻¹
Kd [10]: 2.57 nM
koff [10]: 0.00497 s⁻¹
kon [10]: 1.94e+06 M⁻¹ s⁻¹
Kd [11]: 0.435 nM
koff [11]: 0.00325 s⁻¹
kon [11]: 7.46e+06 M⁻¹ s⁻¹
Kd [12]: 0.104 nM
koff [12]: 0.00058 s⁻¹
kon [12]: 5.59e+06 M⁻¹ s⁻¹
B5: PaB670048 Fab (Fab, V domains shown)
VH: B1 VH with H54S, H57L, H61A, H65K, H66G, V106H
VL: B1 VL
notes: Fab; also called ZZ1KX4-E11

koff [13]: 14.9 s⁻¹
kon [13]: 7.92e+08 M⁻¹ s⁻¹
Kd [5]: 4.15 nM
koff [5]: 0.0314 s⁻¹
kon [5]: 7.57e+06 M⁻¹ s⁻¹
Kd [6]: 0.957 nM
koff [6]: 0.00495 s⁻¹
kon [6]: 5.17e+06 M⁻¹ s⁻¹
Kd [9]: 37.5 nM
koff [9]: 0.0589 s⁻¹
kon [9]: 1.57e+06 M⁻¹ s⁻¹
Kd [10]: 18.8 nM
B6: PaB670136 Fab (Fab, V domains shown)
VH: B1 VH with S56H, H61A, V64H, V106H
VL: B1 VL
notes: Fab; also called ZZ1RUF-A01

IC50 [4]: 906 nM
Fold IC50 (pH 6.0 v pH 7.4) [2]: 79.5 fold
Fold IC50 pH 7.4 (Variant v Par0067) [2]: 13.7 fold
IC50 [3]: 11.4 nM
B7: PaB670162 IgG (antibody, V domains shown)
VH: B1 VH with S56H, H61A, V64H, H100N, H101N
VL: B1 VL with Q88H, N93H, P94H, V101H
notes: as for B2

Source: patent US20180305450A1 (AstraZeneca / MedImmune, published 2018)
